Target: microtubule polymers (Polymerised alpha/beta-tubulin heterodimers (one repeat given). Source is not printed (assay 'as previously described' in a cited paper); commercial mammalian brain tubulin is assumed, porcine taken a)
Assay: co-sedimentation; microtubule pelleting assay; fraction of microtubule-bound Smc5 plotted against microtubule concentration, Kd by curve fitting to a hyperbola; 3 independent experiments
Settings: both partners purified

microtubule polymers (Polymerised alpha/beta-tubulin heterodimers (one repeat given). Source is not printed (assay 'as previously described' in a cited paper); commercial mammalian brain tubulin is assumed, porcine taken a), sequence (chain, as listed by the source, chain 1 of 2): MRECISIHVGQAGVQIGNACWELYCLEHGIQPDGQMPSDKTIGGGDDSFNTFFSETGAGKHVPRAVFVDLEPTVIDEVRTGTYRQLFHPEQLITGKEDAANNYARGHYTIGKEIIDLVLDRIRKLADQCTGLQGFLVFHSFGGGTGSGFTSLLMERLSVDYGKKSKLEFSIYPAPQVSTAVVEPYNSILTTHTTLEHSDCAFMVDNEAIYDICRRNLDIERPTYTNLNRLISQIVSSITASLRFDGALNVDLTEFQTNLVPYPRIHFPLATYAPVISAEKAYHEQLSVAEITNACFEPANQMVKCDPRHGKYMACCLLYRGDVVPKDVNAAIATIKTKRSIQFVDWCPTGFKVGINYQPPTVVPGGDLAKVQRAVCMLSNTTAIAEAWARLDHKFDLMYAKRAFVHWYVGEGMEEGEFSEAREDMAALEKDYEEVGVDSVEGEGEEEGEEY
microtubule polymers (Polymerised alpha/beta-tubulin heterodimers (one repeat given). Source is not printed (assay 'as previously described' in a cited paper); commercial mammalian brain tubulin is assumed, porcine taken a), sequence (chain, as listed by the source, chain 2 of 2): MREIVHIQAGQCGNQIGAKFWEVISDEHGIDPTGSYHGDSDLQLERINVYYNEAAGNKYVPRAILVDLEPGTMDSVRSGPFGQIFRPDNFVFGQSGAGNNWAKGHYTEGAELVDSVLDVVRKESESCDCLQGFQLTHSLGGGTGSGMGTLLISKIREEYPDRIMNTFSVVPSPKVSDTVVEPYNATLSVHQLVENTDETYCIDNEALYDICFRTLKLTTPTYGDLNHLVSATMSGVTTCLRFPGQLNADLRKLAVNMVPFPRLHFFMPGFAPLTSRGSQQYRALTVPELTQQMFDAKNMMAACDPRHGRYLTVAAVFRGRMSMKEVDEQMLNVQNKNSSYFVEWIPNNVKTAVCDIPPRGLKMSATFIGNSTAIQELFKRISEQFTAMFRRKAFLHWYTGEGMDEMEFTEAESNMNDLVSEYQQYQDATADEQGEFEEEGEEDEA

B1: Smc5-2KE hinge domain (residues 215–885, K624E K631E) (domain or fragment, S. cerevisiae, UniProt Q08204 215-885, looked up)
chain: LRELQGNEQSLQKDLDFKKAKIVHLRQESDKLRKSVESLRDFQNKKGEIELHSQLLPYVKVKDHKEKLNIYKEEYERAKANLRAILKDKKPFANTKKTLENQVEELTEKCSLKTDEFLKAKEKINEIFEKLNTIRDEVIKKKNQNEYYRGRTKKLQATIISTKEDFLRSQEILAQTHLPEKSVFEDIDIKRKEIINKEGEIRDLISEIDAKANAINHEMRSIQRQAESKTKSLTTTDKIGILNQDQDLKEVRDAVLMVREHPEMKDKILEPPIMTVSAINAQFAAYLAQCVDYNTSKALTVVDSDSYKLFANPILDKFKVNLRELSSADTTPPVPAETVRDLGFEGYLSDFITGDKRVMKMLCQTSKIHTIPVSRRELTPAQIKKLITPRPNGKILFKRIIHGNRLVDIEQSAYGSEQVFPTDVSIKQTNFYQGSIMSNEQKIRIENEIINLKNEYNDRKSTLDALSNQKSGYRHELSELASKNDDINREAHQLNEIRKKYTMRKSTIETLREKLDQLKREARKDVSQKIKDIDDQIQQLLLKQRHLLSKMASSMKSLKNCQKELISTQILQFEAQNMDVSMNDVIGFFNEREADLKSQYEDKKKFVKEMRDTPEFQSWMREIRSYDQDTKEKLNKVAEKYEEEGNFNLSFVQDVLDKLESEIAMVNHDES
notes: Smc5, S. cerevisiae, hinge domain construct, residues 215-885, with K624E and K631E; source: purified
- fold reduction in binding affinity against wild-type Smc5: 3 fold

— paper PMC13470446, “Microtubule-dependent regulation of chromatin dynamics by the Smc5/6 complex” (iScience, 2026)
